B1: recombinated fengycin-peptide cyclase (Bacillus subtilis subsp. subtilis str. 168) (protein)
chain: QNLFCFPPISGFGIYFKDLALLLNEKAAVYGFHFIEQDTRIEQYVNCMTDIQPEGPYVLLGYSAGGNLAFEVAQAMERKGLEVSDFIIVDAYLKEQPLPIDTGNDESAAYLPEAVREKVMKKKRNYQEYWAQLLNEGHIKASIHFIEAGIHPETSGHTGLTKWEGACGNYSEYTGFGAHKDMLEGTYAEKNADIILDILEKITSNQ
notes: recombinant fengycin TE
B2: surfactin-peptide cyclase (Bacillus subtilis subsp. subtilis str. 168) (protein)
chain: QIIFAFPPVLGYGLMYQNLSSRLPSYKLCAFDFIEEEDRLDRYADLIQKLQPEGPLTLFGYSAGCSLAFEAAKKLEEQGRIVQRIIMVDSYKKQGVSDLDGRTVESDVEALMNVNRDNEALNSEAVKHGLKQKTHAFYSYYVNLISTGQVKADIDLLTSGADFDMPEWLASWEEATTGVYRVKRGFGTHAEMLQGETLDRNAEILLEFLNTQT
notes: purified, isolated thioesterase domains or peptide cyclases from NRPS or PKS systems

Key:
[1] = substrate: CCC(C)[C@H](NC(=O)[C@H](Cc1ccc(O)cc1)NC(=O)[C@@H](CCC(N)=O)NC(=O)[C@@H]1CCCN1C(=O)[C@@H](C)NC(=O)[C@@H](CCC(=O)O)NC(=O)[C@H](NC(=O)[C@H](Cc1ccc(O)cc1)NC(=O)[C@H](CCCN)NC(=O)[C@H](CCC(=O)O)NC(C)=O)C(C)O)C(=O)Sc1ccccc1; experiment: cyclization kinetics with fengycin-peptide cyclase; type: biochemical; details: other: cyclization reaction, Lineweaver-Burk plot, 25 mM HEPES, 50 mM NaCl, pH 7, room temperature
Method: The purified substrate with the leaving group according to the present invention is then incubated with the respective peptide cyclase in the ratio of 1 (enzyme): 100 (substrate) in 25 mM HEPES, 50 mM NaCl at pH 7 and room temperature for 30-60 minutes. The production of the HEPES solution is known to persons skilled in the art and was described in J. Sambrook, E. F. Fritsch and T. Maniatis: Molecular Cloning: A Laboratory Manual Vol. I-III, Cold Spring Harbor Laboratory Press, 1982. The identification and quantification of the reaction product is carried out by means of analytical HPLC.
The cyclization of the linear fengycin-thiophenol substrate is carried out in an aqueous cyclization buffer comprised of 2-[4-(2-hydroxyethyl)-1-piperazinyl]-ethane sulfonic acid (HEPES, 25 mM) and sodium chloride (NaCl, 50 mM) at pH 7 in a total volume of 50 μL. The substrate concentration is 100 μM for standard cyclization reactions. The cyclization reaction is initiated by the addition of recombinant fengycin TE at an end concentration of 5 μM and stopped by the addition of 35 μL of 4% trifluoroacetic acid (TFA) in water after 4 hours. […]
With this measurement, the linear range for further kinetic studies is determined. […]

[2] = substrate: CC(C)C[C@H](NC(=O)[C@@H](CC(=O)O)NC(=O)[C@H](NC(=O)[C@H](CN)NC(=O)[C@@H](CC(C)C)NC(=O)[C@@H](CCC(=O)O)NC(=O)CC(C)O)C(C)C)C(=O)N[C@H](CC(C)C)C(=O)Sc1ccccc1; experiment: cyclization kinetics with surfactin-peptide cyclase; type: biochemical; details: other: cyclization reaction; pH 7.0; 40.0 °C
Method: […] The production of the HEPES solution is known to persons skilled in the art and was described in J. Sambrook, E. F. Fritsch and T. Maniatis: Molecular Cloning: A Laboratory Manual Vol. I-III, Cold Spring Harbor Laboratory Press, 1982. The identification and quantification of the reaction product is carried out by means of analytical HPLC.
With this measurement, the linear range for further kinetic studies is determined. The reactions are stopped by the addition of 35 μL TFA (4% in water) and examined by analytic HPLC with a Nucleodur C18 column (Macherey and Nagel, 250/3, pore diameter: 100 Å, particle size: 3 μm) with the following gradient: 0-35 min, 30-60% acetonitrile/0.1% TFA in water/0.1% TFA; 0.4 mL/min, 40° C. Kinetic examinations are carried out at different points in time at substrate concentrations of 50 μM up to 1000 μm and the kinetic parameters KM and kcat are taken from the Lineweaver-Burk plot. For fengycin-thiophenol, a KM of 461 μm and a kcat of 0.33 min^−1 result from the cyclization reaction.
In the case of surfactin-peptide cyclase, kinetic reference data with a SNAC-substrate exists. In the case of surfactin-thiophenol, a KM of 126 μm and a kcat of 5.6 min^−1 are determined for the cyclization reaction, which corresponds to a kcat/KM value of 0.04 μm^−1 min^−1. Compared with that is the kinetic efficiency of surfactin-SNAC, represented by the kcat/KM value 0.0029 μm^−1 min^−1, 14 times less than with surfactin-thiophenol.

| Protein | Km [1] [µM] | kcat [1] [s⁻¹] | Km [2] [µM] | kcat [2] [s⁻¹] | kcat/Km [2] [μm^−1 min^−1] |
| --- | --- | --- | --- | --- | --- |
| B1 | 461 | 0.0055 | – | – | – |
| B2 | – | – | 126 | 0.0933 | 0.04 |

Reference: patent publication US8063181B2, “Method for the production of cyclic molecules” (ZYRUS Beteiligungsgesellschaft mbH & Co. Patent I KG, priority 2003, dated 2011)
